Test results as given in US20250223358A1 (ANTENGENE BIOLOGICS, published 2025).

B1: hu40E9-L2H3 (antibody, V domains shown)
VH: EVQLVQSGAEVKKPGSSVKVSCKASGYTFSSYVIHWVRQAPGQGLEWMGYINPYNDVIKYNEKFKGRVTLTSDKSTSTAYMELSSLRSEDTAVYYCARDSYYSYDGFAYWGQGTLVTVSS
VL: EIVLTQSPDFQSVTPKEKVTITCSASSSVSYMHWYQQKPDQSPKRLIYDTSKLASGVPSRFSGSGSGTDFTLTINSLEAEDAATYYCQQWSSNPPTFGGGTKVEIK
notes: humanized 40-C12-C10-E9
B2: hu40E9-L2H3-N93S.L (antibody, V domains shown)
VH: EVQLVQSGAEVKKPGSSVKVSCKASGYTFSSYVIHWVRQAPGQGLEWMGYINPYNDVIKYNEKFKGRVTLTSDKSTSTAYMELSSLRSEDTAVYYCARDSYYSYDGFAYWGQGTLVTVSS
VL: EIVLTQSPDFQSVTPKEKVTITCSASSSVSYMHWYQQKPDQSPKRLIYDTSKLASGVPSRFSGSGSGTDFTLTINSLEAEDAATYYCQQWSSSPPTFGGGTKVEIK
B3: hu40E9-L2H2 (antibody, V domains shown)
VH: EVQLVQSGAEVKKPGSSVKVSCKASGYTFSSYVIHWVRQAPGQGLEWMGYINPYNDVIKYNEKFKGRVTITADKSTSTAYMELSSLRSEDTAVYYCARDSYYSYDGFAYWGQGTLVTVSS
VL: EIVLTQSPDFQSVTPKEKVTITCSASSSVSYMHWYQQKPDQSPKRLIYDTSKLASGVPSRFSGSGSGTDFTLTINSLEAEDAATYYCQQWSSNPPTFGGGTKVEIK
notes: humanized 40-C12-C10-E9
B4: hu40E9-L2H3-S91R.L (antibody, V domains shown)
VH: EVQLVQSGAEVKKPGSSVKVSCKASGYTFSSYVIHWVRQAPGQGLEWMGYINPYNDVIKYNEKFKGRVTLTSDKSTSTAYMELSSLRSEDTAVYYCARDSYYSYDGFAYWGQGTLVTVSS
VL: EIVLTQSPDFQSVTPKEKVTITCSASSSVSYMHWYQQKPDQSPKRLIYDTSKLASGVPSRFSGSGSGTDFTLTINSLEAEDAATYYCQQWRSNPPTFGGGTKVEIK
B5: hu40E9-L2H3-G106A.H (antibody, V domains shown)
VH: EVQLVQSGAEVKKPGSSVKVSCKASGYTFSSYVIHWVRQAPGQGLEWMGYINPYNDVIKYNEKFKGRVTLTSDKSTSTAYMELSSLRSEDTAVYYCARDSYYSYDAFAYWGQGTLVTVSS
VL: EIVLTQSPDFQSVTPKEKVTITCSASSSVSYMHWYQQKPDQSPKRLIYDTSKLASGVPSRFSGSGSGTDFTLTINSLEAEDAATYYCQQWSSNPPTFGGGTKVEIK
B6: hu40E9-L2H3-D105E.H (antibody, V domains shown)
VH: EVQLVQSGAEVKKPGSSVKVSCKASGYTFSSYVIHWVRQAPGQGLEWMGYINPYNDVIKYNEKFKGRVTLTSDKSTSTAYMELSSLRSEDTAVYYCARDSYYSYEGFAYWGQGTLVTVSS
VL: EIVLTQSPDFQSVTPKEKVTITCSASSSVSYMHWYQQKPDQSPKRLIYDTSKLASGVPSRFSGSGSGTDFTLTINSLEAEDAATYYCQQWSSNPPTFGGGTKVEIK
B7: hu40E9-L2H3-D99E.H (antibody, V domains shown)
VH: EVQLVQSGAEVKKPGSSVKVSCKASGYTFSSYVIHWVRQAPGQGLEWMGYINPYNDVIKYNEKFKGRVTLTSDKSTSTAYMELSSLRSEDTAVYYCARESYYSYDGFAYWGQGTLVTVSS
VL: EIVLTQSPDFQSVTPKEKVTITCSASSSVSYMHWYQQKPDQSPKRLIYDTSKLASGVPSRFSGSGSGTDFTLTINSLEAEDAATYYCQQWSSNPPTFGGGTKVEIK
B8: hu40E9-L2H3-D56G.H (antibody, V domains shown)
VH: EVQLVQSGAEVKKPGSSVKVSCKASGYTFSSYVIHWVRQAPGQGLEWMGYINPYNGVIKYNEKFKGRVTLTSDKSTSTAYMELSSLRSEDTAVYYCARDSYYSYDGFAYWGQGTLVTVSS
VL: EIVLTQSPDFQSVTPKEKVTITCSASSSVSYMHWYQQKPDQSPKRLIYDTSKLASGVPSRFSGSGSGTDFTLTINSLEAEDAATYYCQQWSSNPPTFGGGTKVEIK

What was measured:
[1] = target: T1, human CD3 (human, UniProt P07766 23-207; P04234 22-171; P09693 23-182); assay: FACS on Jurkat cells
T1 construct: whole, on cells; also called hCD3; CD3 on Jurkat cells

[2] = target: T1, human CD3; assay: cell-based or functional assay

T1 sequence (P07766 23-207, chain 1 of 3): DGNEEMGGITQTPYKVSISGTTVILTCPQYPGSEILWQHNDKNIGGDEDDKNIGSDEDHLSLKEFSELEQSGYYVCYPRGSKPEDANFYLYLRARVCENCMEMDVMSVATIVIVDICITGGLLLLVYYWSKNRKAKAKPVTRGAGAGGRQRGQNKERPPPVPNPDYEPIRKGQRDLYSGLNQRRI
T1 sequence (P04234 22-171, chain 2 of 3): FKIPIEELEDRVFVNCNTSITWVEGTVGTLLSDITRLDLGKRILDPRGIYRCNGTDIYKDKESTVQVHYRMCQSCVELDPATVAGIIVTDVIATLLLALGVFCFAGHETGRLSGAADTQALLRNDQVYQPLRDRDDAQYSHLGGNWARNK
T1 sequence (P09693 23-182, chain 3 of 3): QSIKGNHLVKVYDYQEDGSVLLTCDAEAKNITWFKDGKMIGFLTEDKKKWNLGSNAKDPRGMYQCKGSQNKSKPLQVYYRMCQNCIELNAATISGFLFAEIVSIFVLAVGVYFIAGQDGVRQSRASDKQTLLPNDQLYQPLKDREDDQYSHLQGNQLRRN

| Binder | EC50 [1] [pM] | Top FACS signal [1] | EC50_Fold change (Jurkat-NFAT-luciferase activation, normalized to ch40-C12-C10-E9) [2] [fold] | Top FACS signal_Fold change (Jurkat-NFAT-luciferase activation, normalized to ch40-C12-C10-E9) [2] [fold] |
| --- | --- | --- | --- | --- |
| B1 | 650 | 1580 | 2.43 | 1.18 |
| B2 | 600 | 1360 | 0.74 | 0.87 |
| B3 | 810 | 1570 | 2.14 | 1.28 |
| B4 | 320 | 1360 | 0.79 | 0.95 |
| B5 | 2390 | 771 | 4.95 | 0.99 |
| B6 | 1160 | 1410 | 3.77 | 0.74 |
| B7 | 310 | 957 | 1.19 | 0.91 |
| B8 | 320 | 1450 | 0.65 | 0.82 |
